Biological target: the molecule itself
Test: SEC-MALS; analytical Superdex200 5/150, room temperature, GF buffer (150 mM NaCl, 20 mM HEPES, pH 7.5); oligomeric state of the disulfide-linked assembly

B1: full-length Olfm1 (mouse olfactomedin-1, isoform 1, residues 17-478) (natural protein, UniProt O88998 17-478, looked up)
chain: MITNWMSQTLPSLVGLNTTRLSAASGGTLDRSTGVLPTNPEESWQVYSSAQDSEGRCICTVVAPQQTMCSRDARTKQLRQLLEKVQNMSQSIEVLDRRTQRDLQYVEKMENQMKGLETKFKQVEESHKQHLARQFKAIKAKMDELRPLIPVLEEYKADAKLVLQFKEEVQNLTSVLNELQEEIGAYDYDELQSRVSNLEERLRACMQKLACGKLTGISDPVTVKTSGSRFGSWMTDPLAPEGDNRVWYMDGYHNNRFVREYKSMVDFMNTDNFTSHRLPHPWSGTGQVVYNGSIYFNKFQSHIIIRFDLKTEAILKTRSLDYAGYNNMYHYAWGGHSDIDLMVDENGLWAVYATNQNAGNIVISKLDPVSLQILQTWNTSYPKRSAGEAFIICGTLYVTNGYSGGTKVHYAYQTNASTYEYIDIPFQNKYSHISMLDYNPKDRALYAWNNGHQTLYNVTLFH
modifications: N-linked glycans (eight predicted); interprotein disulfides
notes: the C-terminal VIRSDEL segment is not included; the native signal peptide is replaced by an N-terminal cystatin secretion signal of the vector pUPE107.03; also called noelin; pancortin; source: N-acetylglucosaminyltransferase I-deficient, EBNA1-expressing HEK293 cells, transient expression, secreted; purified (nickel-nitrilotriacetic acid, Superdex200 gel filtration); also unpurified in …
  stoichiometry N: 4

Reference: paper PMC4463452, “Olfactomedin-1 Has a V-shaped Disulfide-linked Tetrameric Structure*^([image sbox.jpg])” (The Journal of Biological Chemistry, 2015)
